Laboratory results from patent publication US20170327844A1.

Molecular target: cation-independent mannose 6-phosphate (M6P) receptor (MPR) (UniProt P11717)
Experiment: cell-based or functional assay

Sequence of UniProt P11717 (P11717 41-2491): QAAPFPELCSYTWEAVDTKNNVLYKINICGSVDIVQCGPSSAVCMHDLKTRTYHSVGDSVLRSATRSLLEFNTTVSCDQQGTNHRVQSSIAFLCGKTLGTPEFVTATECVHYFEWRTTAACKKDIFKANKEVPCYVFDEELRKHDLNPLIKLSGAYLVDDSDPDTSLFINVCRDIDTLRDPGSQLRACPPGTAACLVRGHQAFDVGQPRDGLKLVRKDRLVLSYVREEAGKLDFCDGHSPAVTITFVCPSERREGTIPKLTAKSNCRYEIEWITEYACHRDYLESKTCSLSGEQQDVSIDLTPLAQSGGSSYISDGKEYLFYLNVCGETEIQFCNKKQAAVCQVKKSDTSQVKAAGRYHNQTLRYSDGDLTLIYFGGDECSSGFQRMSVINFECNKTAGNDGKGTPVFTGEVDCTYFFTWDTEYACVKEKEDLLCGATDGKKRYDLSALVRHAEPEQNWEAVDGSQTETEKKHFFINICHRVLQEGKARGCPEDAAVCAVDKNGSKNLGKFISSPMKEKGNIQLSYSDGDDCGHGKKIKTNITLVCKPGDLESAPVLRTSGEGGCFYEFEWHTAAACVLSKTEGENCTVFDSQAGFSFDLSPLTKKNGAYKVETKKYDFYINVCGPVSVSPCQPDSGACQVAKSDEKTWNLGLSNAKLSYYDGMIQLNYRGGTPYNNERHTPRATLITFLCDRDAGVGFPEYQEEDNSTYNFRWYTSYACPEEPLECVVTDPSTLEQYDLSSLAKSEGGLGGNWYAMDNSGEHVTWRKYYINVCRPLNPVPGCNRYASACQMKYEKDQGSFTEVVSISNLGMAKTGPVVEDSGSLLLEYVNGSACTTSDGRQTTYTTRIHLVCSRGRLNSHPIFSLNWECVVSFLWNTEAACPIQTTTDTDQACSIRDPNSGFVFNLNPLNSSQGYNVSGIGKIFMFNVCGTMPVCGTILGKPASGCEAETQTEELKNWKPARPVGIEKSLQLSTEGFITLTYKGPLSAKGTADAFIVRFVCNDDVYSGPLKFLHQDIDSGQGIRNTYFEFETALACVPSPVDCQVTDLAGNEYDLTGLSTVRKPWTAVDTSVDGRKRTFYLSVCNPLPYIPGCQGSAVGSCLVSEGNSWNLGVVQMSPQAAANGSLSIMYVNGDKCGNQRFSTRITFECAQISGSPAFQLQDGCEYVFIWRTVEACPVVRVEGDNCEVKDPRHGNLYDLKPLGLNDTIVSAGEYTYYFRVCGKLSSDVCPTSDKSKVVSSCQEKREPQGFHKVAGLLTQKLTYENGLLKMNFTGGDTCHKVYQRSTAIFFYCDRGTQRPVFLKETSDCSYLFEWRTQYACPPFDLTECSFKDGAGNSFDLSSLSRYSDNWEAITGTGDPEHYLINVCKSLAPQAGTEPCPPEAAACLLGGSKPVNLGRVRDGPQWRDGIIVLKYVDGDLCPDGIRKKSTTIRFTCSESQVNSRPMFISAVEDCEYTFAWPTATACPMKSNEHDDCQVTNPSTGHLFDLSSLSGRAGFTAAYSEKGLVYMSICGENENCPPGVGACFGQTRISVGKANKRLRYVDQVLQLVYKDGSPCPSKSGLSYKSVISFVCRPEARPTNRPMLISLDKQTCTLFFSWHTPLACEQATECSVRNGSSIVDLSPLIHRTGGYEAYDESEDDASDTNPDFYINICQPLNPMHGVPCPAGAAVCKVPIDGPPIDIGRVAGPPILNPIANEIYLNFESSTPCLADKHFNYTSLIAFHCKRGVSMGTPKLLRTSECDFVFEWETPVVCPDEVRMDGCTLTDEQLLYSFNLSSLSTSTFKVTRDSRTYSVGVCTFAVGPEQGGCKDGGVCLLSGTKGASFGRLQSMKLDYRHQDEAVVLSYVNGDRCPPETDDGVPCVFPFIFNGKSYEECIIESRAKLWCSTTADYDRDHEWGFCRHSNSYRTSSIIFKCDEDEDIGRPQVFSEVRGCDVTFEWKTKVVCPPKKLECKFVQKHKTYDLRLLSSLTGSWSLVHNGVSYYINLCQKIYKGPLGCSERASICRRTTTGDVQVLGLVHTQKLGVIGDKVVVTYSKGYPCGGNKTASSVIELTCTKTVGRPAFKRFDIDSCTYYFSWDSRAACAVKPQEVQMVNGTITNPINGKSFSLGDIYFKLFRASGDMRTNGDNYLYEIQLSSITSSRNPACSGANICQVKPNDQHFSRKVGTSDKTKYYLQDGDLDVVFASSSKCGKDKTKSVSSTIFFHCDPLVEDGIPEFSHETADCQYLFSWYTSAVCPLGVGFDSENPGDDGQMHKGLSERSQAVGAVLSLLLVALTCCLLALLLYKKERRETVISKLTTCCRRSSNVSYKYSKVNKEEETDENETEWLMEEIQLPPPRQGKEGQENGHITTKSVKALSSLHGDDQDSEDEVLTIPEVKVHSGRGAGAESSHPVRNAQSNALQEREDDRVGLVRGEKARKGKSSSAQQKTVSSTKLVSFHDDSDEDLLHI

- intracellular IDUA level in LCLmps cells after uptake, relative to wild-type (% of wild-type levels): 10
- intracellular IDUA specific activity in LCLmps cells after 3 hr uptake from conditioned medium: 0.8 U/mg
Substance: alpha-L-iduronidase (IDUA) released by erythroid-induced MEL-KIiG cells (human IDUA cDNA) (from UniProt P35475 28-653) (enzyme)
